From publication PMC12008772, “Transcription Factor SsNdt80b Maintains Optimal Expression of SsSNF1 to Modulate Growth and Pathogenicity in Sclerotinia sclerotiorum”

Target: T1, SsNdt80b-His (Sclerotinia sclerotiorum, UniProt A0A1D9PYE1 1-599)
T1 sequence: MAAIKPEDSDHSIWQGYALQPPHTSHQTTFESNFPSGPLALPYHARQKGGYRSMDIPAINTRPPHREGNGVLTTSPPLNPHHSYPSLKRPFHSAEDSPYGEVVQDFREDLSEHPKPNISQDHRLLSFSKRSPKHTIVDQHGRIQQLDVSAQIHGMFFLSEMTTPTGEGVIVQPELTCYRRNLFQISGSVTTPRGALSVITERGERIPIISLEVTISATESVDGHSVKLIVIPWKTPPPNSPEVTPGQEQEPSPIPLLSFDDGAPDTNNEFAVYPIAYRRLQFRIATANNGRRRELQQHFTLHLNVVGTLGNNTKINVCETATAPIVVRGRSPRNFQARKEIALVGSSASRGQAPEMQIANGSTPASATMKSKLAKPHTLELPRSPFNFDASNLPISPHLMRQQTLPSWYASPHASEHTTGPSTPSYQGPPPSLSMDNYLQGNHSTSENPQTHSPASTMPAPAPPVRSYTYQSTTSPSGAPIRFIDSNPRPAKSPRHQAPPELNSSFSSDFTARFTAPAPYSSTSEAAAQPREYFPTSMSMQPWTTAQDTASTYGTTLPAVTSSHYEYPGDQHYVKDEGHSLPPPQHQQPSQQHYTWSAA
Assay: EMSA; LightShift Chemiluminescence EMSA Kit binding buffer (composition not given); protein 5 min on ice, then probe 30 min at room temperature; 6% native PAGE
Conditions: protein: recombinant; tags: His; label: 5'-biotin on strand 1; printed biotin strand is 39 nt, reverse strand 40 nt: 1 nt 5' overhang (T) on strand 2; unlabelled forward oligo S65 is 40 nt and blunt with S64

B1: P-SsSNF1 biotin probe (dsDNA)
DNA 1: TGAAGAGCAGCTGGAACCACAAATCAACTTTTCCTTTAA
DNA 2: TTTAAAGGAAAAGTTGATTTGTGGTTCCAGCTGCTCTTCA
B1: binds.
